Target: T1, 4H.01 (synthetic construct (de novo design))
T1 chain: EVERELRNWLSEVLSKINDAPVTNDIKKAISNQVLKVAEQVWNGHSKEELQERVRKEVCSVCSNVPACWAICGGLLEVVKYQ
Experiment: SPR

Kd [nM] | Binder
0.5 | Motavizumab IgG (antibody, V domains shown) VH: QVTLRESGPALVKPTQTLTLTCTFSGFSLSTAGMSVGWIRQPPGKALEWLADIWWDDKKHYNPSLKDRLTISKDTSKNQVVLKVTNMDPADTATYYCARDMIFNFYFDVWGQGTTVTVSS VL: DIQMTQSPSTLSASVGDRVTITCSASSRVGYMHWYQQKPGKAPKLLIYDTSKLASGVPSRFSGSGSGTEFTLTISSLQPDDFATYYCFQGSGYPFTFGGGTKVEIK
200 | 2D10 IgG (antibody, V domains shown) VH: QVQLVQSGPEVKKPGASVRLSCKASGYVFTNYGVSWVRQAPGQGLEWMGWSSPYNGNTYYAQKLKARVTMTTDTSTNTAYMELRSLRSDDTAVYYCGRDMLGVVQAVAGPFDSWGQGTLVTVSS VL: DTPMTQSPSSVSASVGDRVTISCRASQGISNSLAWYQQKLGKAPQLLIYAASSLQSGVPSRFSGSGSGTDFTLTISSLQPEDFATYYCQQTNTFPFTFGPGTKVEVR

From article doi:10.1101/2020.03.11.988071 (bioRxiv, 2020)
